Blank lines part the entries; values can stand above or below the binder they belong to.
Experiments:
CD40-Fc (R&D #1493-CD) = molecular target: T1, CD40-Fc (R&D #1493-CD) (human, UniProt P25942 21-193); assay: SPR (Biacore 3000), CD40-Fc immobilised, control antibody injected
T1 construct: Bought reagent immobilised on the Biacore chip; also called human CD40; not shown: Fc part of the bought fusion
Procedure: CD40-Fc (R&D #1493-CD) was immobilized to the BIAcore sensorship, CMS, using conventional amine coupling. 0.5 uM Bispecific construct (957/530) was injected over immobilized CD40 for 3 minutes and the dissociation was followed for 3 minutes. 2.17 uM CTLA4-Fc (Orencia, Bristol-Mayers Squibb) was injected over the CD40-Bispecific complex for 3 minutes and the dissociation phase was followed for 3 minutes. The chip was finally regenerated using 10 mM Glycine, pH 1.7. A Biacore 3000 instrument was used according to the manufacturer's protocols.

[1] = molecular target: T2, human CTLA4-Fc (Fitzgerald #30R-CD152) (human, UniProt P16410 38-152); assay: binding ELISA, CTLA4-Fc coated, sample titrated, anti-human IgG Fc-HRP, chemiluminescence
T2 construct: Bought reagent; also called biotinylated-CTLA4; human CTLA-4 (Fitzgerald); not shown: Fc part of the bought fusion
Procedure: The plates were washed (Wash buffer: PBS+0.05% Tween 20 (PBST) Medicago #09-9410-100) and then blocked in PBST+3% BSA (Merck, #1.12018.0100). […] The samples were incubated for 1 h at room temperature and then washed. Detection antibody, goat-anti-human IgG Fcγ-HRP (Jackson, #109-035-098) was added and the plates were subsequently developed using SuperSignal Pico Chemiluminescent substrate (Thermo #37069) and detected with Envision reader (Perkin Elmer).

[2] = molecular target: T3, CTLA4-Fc (Orencia, Bristol-Mayers Squibb) (human, UniProt P16410 38-152); assay: dual ELISA: CD40-Fc coated, antibody at 0.2 ug/ml captured, biotinylated CTLA4-Fc titrated, streptavidin-HRP
T3 construct: Commercial drug Orencia; Biotinylated in the dual ELISA; also called soluble CTLA-4; human CTLA-4; not shown: Fc part of Orencia
Procedure: In short, 96-well flat bottom plate high binding plates (Greiner #655074) were coated with CD40-Fc (Ancell # 504-820) by incubating overnight at 4° C. The plates were washed (Wash buffer: PBS+0.05% Tween 20 (PBST) Medicago #09-9410-100) and then blocked in PBST+3% BSA (Merck, #1.12018.0100). […] The samples were incubated for 1 h at room temperature and then washed.

[3] = molecular target: T4, CD28-Fc (provided by Simon Davis, Oxford University) (human, UniProt P10747 19-152, limits assumed); assay: binding ELISA, coated CD28-Fc
T4 construct: Gift reagent; not shown: Fc part
Procedure: (§1) The plates were washed (Wash buffer: PBS+0.05% Tween 20 (PBST) Medicago #09-9410-100) and then blocked in PBST+3% BSA (Merck, #1.12018.0100). The plates were washed again and sample or controls (serially diluted 1/3 from […]) were added to the wells. The samples were incubated for 1 h at room temperature and then washed. Detection antibody, goat-anti-human IgG Fγy-HRP (Jackson, #109-035-098) was added and the plates were subsequently developed using SuperSignal Pico Chemiluminescent substrate (Thermo #37069) and detected with an Envision reader (Perkin Elmer).

[4] = molecular target: T2, human CTLA4-Fc (Fitzgerald #30R-CD152); assay: inhibition ELISA; best molecule is 1040 by Table 8
Procedure: (§2) The plates were washed (Wash buffer: PBS+0.05% Tween 20 (PBST) Medicago #09-9410-100) and then blocked in PBST+3% BSA (Merck, #1.12018.0100). The sample (CD86 mutant or wild type protein; serially diluted 1/4 from 30000 to 0.3 ng/ml) was incubated with biotinylated-CTLA4 (Fitzgerald #30R-CD152) in room temperature 1 h, the mixture was then added to the blocked wells in the ELISA plate. Detection was performed with Streptavidin-HRP (Pierce #21126) and the plates were subsequently developed using SuperSignal Pico Chemiluminescent substrate (Thermo #37069) and detected with Envision reader (Perkin Elmer).

[5] = molecular target: T2, human CTLA4-Fc (Fitzgerald #30R-CD152); assay: binding ELISA, coated CTLA4-Fc; high end tied to 1040 by Table 7
Procedure: as §1

[6] = molecular target: T2, human CTLA4-Fc (Fitzgerald #30R-CD152); assay: binding ELISA, CTLA4-Fc coated, sample titrated, anti-human IgG Fc-HRP, chemiluminescence, data normalised to % [upper panel]
Procedure: as §1

[7] = molecular target: T2, human CTLA4-Fc (Fitzgerald #30R-CD152); assay: inhibition ELISA: sample titrated, pre-incubated with biotinylated CTLA4-Fc, mixture added to coated wildtype CD86-Fc (competitor), streptavidin-HRP [lower panel]
Procedure: as §2

[8] = molecular target: T2, human CTLA4-Fc (Fitzgerald #30R-CD152); assay: binding ELISA, coated CTLA4-Fc; low end tied to 1042 by Table 7
Procedure: as §1

[9] = molecular target: T2, human CTLA4-Fc (Fitzgerald #30R-CD152); assay: Biacore SPR, CD28/CTLA-4 Kd ratio against that of wild type
Procedure: The CD86 mutant molecules and controls (serially diluted 1/2 100-1.5 nM) were analyzed for binding in HBs-P (GE, BR-1003-69) at a flow rate […]. The association was followed for 3 minutes and the dissociation for 10 minutes. Regeneration was performed twice using 5 mM NaOH for 30 seconds. The kinetic parameters and the affinity constants were calculated using BlAevaluation 4.1 software.

[10] = molecular target: T2, human CTLA4-Fc (Fitzgerald #30R-CD152); assay: binding ELISA, CD28/CTLA-4 EC50 ratio against that of wild type
Procedure: The plates were washed (Wash buffer: PBS+0.05% Tween 20 (PBST) Medicago #09-9410-100) and then blocked in PBST+3% BSA (Merck, #1.12018.0100).
The plates were washed again and sample or controls (serially diluted 1/5 from 200-0.001 μg/ml) were added to the wells. The samples were incubated for 1 h at room temperature and then washed. Detection antibody, goat-anti-human IgG Fcγ-HRP (Jackson, #109-035-098) was added and the plates were subsequently developed using SuperSignal Pico Chemiluminescent substrate (Thermo #37069) and detected with an Envision reader

T2 sequence (P16410 38-152 limits assumed): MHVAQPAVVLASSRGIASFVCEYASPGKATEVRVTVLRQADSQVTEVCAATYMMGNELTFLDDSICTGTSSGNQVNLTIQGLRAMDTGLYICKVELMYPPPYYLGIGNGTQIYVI
T1 sequence (P25942 21-193 limits assumed): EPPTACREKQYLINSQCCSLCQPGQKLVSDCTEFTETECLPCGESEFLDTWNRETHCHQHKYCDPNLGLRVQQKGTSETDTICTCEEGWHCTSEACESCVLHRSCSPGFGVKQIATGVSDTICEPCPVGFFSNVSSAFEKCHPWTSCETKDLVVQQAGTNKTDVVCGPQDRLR
T3 sequence (P16410 38-152 limits assumed): as the sequence (P16410 38-152 limits assumed) above

binding result (CD40-Fc (R&D #1493-CD)): binds
B1: Antibody A2-54 (monospecific anti-CD40) (antibody, human IgG1, kappa, V domains shown)
VH: EVQLLESGGGLVQPGGSLRLSCAASGFTFSDYYMSWVRQAPGKGLEWISSISSNGIYIYYADSLKGRFTISRDNSKNTLYLQMNSLRAEDTAVYYCARAPVDYSNPSGMDVWGQGTLVTVSS
VL: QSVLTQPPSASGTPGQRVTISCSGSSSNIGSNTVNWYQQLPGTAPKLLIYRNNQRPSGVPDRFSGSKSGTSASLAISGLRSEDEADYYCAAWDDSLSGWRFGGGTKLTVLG
notes: VH-gamma1 / VL-kappa; also called control Ab
binding result [1]: no binding (tested: log 1.2 µg/mL (about 16 µg/mL))
binding result [2]: no binding (tested: 20 µg/mL of hCTLA-4-bio)

binding result [3]: no binding
fold improvement of IC50 over wild type [4]: > 100 fold
fold improvement of EC50 over wild type [5]: 2 to 67 fold
EC50 (read off the curve) [6]: ~0.009 µg/mL
IC50 (read off the curve) [7]: ~0.05 µg/mL
B2: CD86 mutant clone 1040, gamma2/gamma4 fusion (Fc fusion)
chain: APLKIQAYFNETADLPCQFANSQNLSLSELVVFWQDQENLVLNEVYLGKERFDSVDSKYMGRTSFDSDSWTLRLHNLQIKDKGRYQCIIHHKKPTGMINIHQMNSELSVLA
notes: Expressed as gamma2/gamma4 fusion, protein A purified; not shown: gamma2/gamma4 Fc

binding result [3]: no binding
fold improvement of EC50 over wild type [8]: 2 to 67 fold
EC50 (read off the curve) [6]: ~0.3 µg/mL
B3: CD86 mutant clone 1042, gamma2/gamma4 fusion (Fc fusion)
chain: APLKIQAYFNETADLPCQFANSQNLSLSELVVFWQDQENLVLNEVYLGKEIFDSVSSKYMGRTSFDSDSWTLRLHNLQIKDKGIYQCIIHHKKPSGMVKIHQMDSELSVLA
notes: as for B2

fold of Kd binding ratio over wild type protein CD86 [9]: > 4 fold
B4: CD86 mutant clone 904, gamma2/gamma4 Fc fusion (Fc fusion)
chain: LKIQAYFNETADLPCQFANSQNQSLSELIVFWQDQENLVLNEVYLGKERFDAVDSKYMGRTSFDSDSWTLRLHNLQIKDKGIYQCIIHHKKPSGMVKIHQMDSELSVLA
notes: Fusion to gamma2/gamma4 Fc, HEK293; not shown: gamma2/gamma4 Fc

fold of EC50 binding ratio over wild-type protein CD86 [10]: ~10 fold
B5: CD86 mutant clone 907, gamma2/gamma4 Fc fusion (Fc fusion)
chain: LKIQAYFNETADLPCQFANSQNQSLSELVVFWQDQENLVLNEVYLGKEKFDSVHSKYMGRTSFDSDSWTLRLHNLQIKDKGLYQCIIHHKKPTGMIKIHEMNSELSVLA
notes: as for B4

Reference: patent US20170304437A1 (ALLIGATOR BIOSCIENCE, published 2017)
